According to paper PMC11602133, “Uncoupling [sequence]’s functions through modification of a protein motif identified by co-ortholog analysis” (Nucleic Acids Research, 2024):

Target: the molecule itself
Assay: native gel or EMSA; in vitro produced proteins (wheat germ TnT) mixed with a DY-682 labelled ~100 bp DNA probe containing a CArG-box (SAUR10 probe); protein complexes read from the shifted bands on DNA; anti-FLAG antibody added for supershift where FUL-FLAG was used

B1: FRUITFULL (FUL), Arabidopsis, in vitro produced (natural protein)
chain: not shown
notes: also called FUL(ST); source: in vitro translated (TnT SP6 High-Yield Wheat Germ Protein Expression System, pSPUTK vector)
stoichiometry N: 2
